Assay results: PMC2928812

Test system: FMDV 3D polymerase wild type (Foot-and-mouth disease virus C-S8c1?)
Assay: EMSA

Q: For “heteropolymeric RNA template-primer of the RNA binding assay”, which binding signal (% RNA retarded) is on record?
A: Its binding signal (% RNA retarded) is 62.
